These results are taken from US20240374685A1, “METHODS OF TREATING LOCALLY ADVANCED OR METASTATIC PANCREATIC ADENOCARCINOMA USING AXL DECOY RECEPTORS AS FIRST-LINE THERAPY” (Aravive Inc, priority 2021, published 2024).

Data set [1] has as its system metastatic pancreatic adenocarcinoma. The settings on record: cited from earlier work.
The test system of the next data set is mouse. As to the kind of experiment: 3-month mouse toxicity study. In kind it is in vivo. How it is done:
There were no clinical observations, no changes in urinalysis parameters, no ophthalmology signs, and no macroscopic or microscopic observations of significance related to the administration of AVB-S6-500 at doses up to the NOAEL of 200 mg/kg/week.

The test system of data set [2] is platinum-resistant, recurrent ovarian cancer. Nature of the data set: Ph1b trial in platinum-resistant, recurrent ovarian cancer. It is filed as in vivo, human. How it is done: AVB-S6-500 was evaluated in a Ph1b trial in combination with either paclitaxel or pegylated liposomal doxorubicin in subjects with platinum-resistant, recurrent ovarian cancer. Fifty-three subjects were dosed with AVB-S6-500 at doses ranging from 10 to 20 mg/kg once every 2 weeks in combination with their physician-chosen chemotherapy. […] All infusion reactions have been Grade 1 or 2, none met serious criteria, and all resolved without sequelae.

The next data set relates to monkey. Nature of the data set: 3-month monkey toxicity study. In kind it is in vivo.
For data set [3], the system named is pancreatic (PDA1-1) models. Nature of the data set: Pancreatic mouse models. In kind it is in vivo.
The test system of data set [4] is aggressive human cancers. Particulars: cited from earlier work.
For a further data set, the target named is T1, GAS6 (Homo sapiens, UniProt Q14393).
T1 sequence (Q14393 31-678): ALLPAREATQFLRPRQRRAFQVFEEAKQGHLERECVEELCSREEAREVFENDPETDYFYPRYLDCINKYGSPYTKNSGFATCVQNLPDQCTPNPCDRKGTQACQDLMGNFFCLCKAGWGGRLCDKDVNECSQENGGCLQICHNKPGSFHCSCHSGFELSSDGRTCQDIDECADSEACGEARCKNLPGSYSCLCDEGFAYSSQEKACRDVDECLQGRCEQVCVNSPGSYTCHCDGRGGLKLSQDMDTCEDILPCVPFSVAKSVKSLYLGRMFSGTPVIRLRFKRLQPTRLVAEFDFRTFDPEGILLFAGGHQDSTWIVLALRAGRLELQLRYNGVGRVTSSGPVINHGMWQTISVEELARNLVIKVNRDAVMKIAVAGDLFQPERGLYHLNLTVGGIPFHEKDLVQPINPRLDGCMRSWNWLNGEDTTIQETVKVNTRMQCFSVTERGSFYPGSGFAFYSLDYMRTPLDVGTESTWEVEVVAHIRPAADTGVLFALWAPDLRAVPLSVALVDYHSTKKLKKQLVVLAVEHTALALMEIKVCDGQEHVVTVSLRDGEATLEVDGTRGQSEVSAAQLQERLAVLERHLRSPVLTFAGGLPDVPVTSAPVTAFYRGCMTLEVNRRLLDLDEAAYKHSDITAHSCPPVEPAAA
Nature of the data set: Binding affinity to GAS6.

The nature of data set [5]: Pharmacokinetics in the cynomolgus monkey. It is filed as in vivo. The settings on record: IV. An excerpt:
The pharmacokinetics (PK) and toxicokinetics of AVB-S6-500 and pharmacodynamics (PD) of growth arrest specific-6 protein (GAS6) have been investigated in mice (intraperitoneal [IP] and intravenous [IV] routes) and monkeys (IV route) following single and repeat dosing. The PK profile of AVB-S6-500 is compatible with target-mediated drug disposition (TMDD) with 2 parallel elimination paths: normal clearance of IgG and second order that is saturable and fits the typical 2-compartment model. […] Using the TMDD model (Dirks, N. A., Clinical Pharmacokinetics, 633-659, 2010), the human dose estimated to be efficacious may range from 1 mg/kg (to ensure GAS6 levels remain at least 90% less than baseline) to 20 mg/kg (to ensure 99% abrogation of GAS6 and allowing for a 3-fold increase in GAS6 levels in patients with cancer relative to normal levels). This model was used to select first-in-human dosing, and an external validation showing good agreement between projections and clinical observations has been published (Bonifacio, L., Clinical and Translational Science, 1-8, 2019).

Data set [6] has as its system aggressive human cancers. Nature of the data set: Preclinical (nonclinical) tumor models. In kind it is in vivo, mouse.
The test system of data set [7] is locally advanced, recurrent, or metastatic 1L pancreatic adenocarcinoma. Nature of the data set: Phase 1b study of AVB-S6-500 plus nab-paclitaxel and gemcitabine.
Experimental: The AVB-S6-500 volume is adjusted according to the subject's weight and diluted prior to infusion.
On days when all three drugs are administered, the sequence of administration is AVB-S6-500 infusion first followed by at least a 30-minute observation period, then nab-paclitaxel immediately followed by gemcitabine. AVB-S6-500 (15 mg/kg) will be administered by a 1-hour IV infusion on Days 1 and 15 of each 28-day cycle. Subjects will receive premedication with anti-H1 antagonists (anti-H1) and anti-H2 antagonists (anti-H2) (steroids optional) prior to administration of AVB-S6-500 to reduce the risk and severity of infusion reactions. Nab-paclitaxel (125 mg/m2) will be administered by a 30-40-minute IV infusion on Days 1, 8, and 15 of each 28-day cycle. Immediately following nab-paclitaxel, gemcitabine (1000 mg/m2) will be administered by a 30-minute IV infusion on Days 1, 8, and 15 of each 28-day cycle. Appropriate premedication with corticosteroids, diphenhydramine, and H2 antagonists (as per institutional practice, with IV antihistamines and steroids strongly recommended) should be administered prior to administration of nab-paclitaxel and gemcitabine.
The Ph1b portion of this study is a multicenter, open-label, single treatment arm group design to evaluate the safety, tolerability, and preliminary efficacy of AVB-S6-500 in combination with nab-paclitaxel and gemcitabine in subjects with locally advanced, recurrent, or metastatic 1L pancreatic adenocarcinoma.
The test system of another data set is highly metastatic cells. Nature of the data set: AXL signaled invasion and migration in vitro. It is filed as cell-based.
The test system of a further data set is healthy volunteers. Nature of the data set: First-in-human Phase 1 single ascending dose and repeat-dose study. In kind it is in vivo.
Where [8] appears, read: clinical data from prior studies of AVB-S6-500.
The mark [9] stands for this setting: number of the 5 subjects at 15 mg/kg, with chemotherapy.

Experimental for healthy volunteers: Single dose cohorts of 1, 2.5, 5, and 10 mg/kg were evaluated as well as 1 RD cohort dosed with 5 mg/kg once weekly for 4 weeks.

`Nc1ccn([C@@H]2O[C@H](CO)[C@@H](O)C2(F)F)c(=O)n1` [gemcitabine]: the OS in data set [1] (861 subjects randomized) was 6.7 months. Further, the Sepsis in data set [1] (all grades) is reported as 2%. Also, in data set [1] (in vivo), the Fatal events is listed as 4%, the median progression-free survival is on record as 3.7 months, the pneumonitis is 1% and the “proportion of patients with SAEs” value is 43%. For the same molecule, in [1] (in vivo), the “response rate according to independent review” value is reported as 7%.

The NOAEL is the highest dose or exposure tested at which no adverse effect was seen. Take “AVB-S6-500: soluble AXL variant polypeptide fusion protein comprising an Fc domain, a linker, lacks a functional FN domain, SEQ ID NO: 2”: the mortalities result with mouse (mouse, in vivo) is “no mortalities”. The molecule further displayed an NOAEL in the data set on mouse (twice-weekly slow bolus IV infusion) of 200 mg/kg/week. Also, the “no-observed-adverse-effect-level (NOAEL)” value with mouse (twice-weekly slow bolus IV infusion, 25, 50, 100 mg/kg) was “at least 100 mg/kg/dose”. Further, the dose-limiting toxicities result in data set [2] (10 to 20 mg/kg every 2 weeks with paclitaxel or pegylated liposomal doxorubicin, 53 subjects) is “No dose-limiting toxicities were observed”. Further, in data set [2] (all infusion reactions), the “grade of infusion reactions” value is recorded as “Grade 1 or 2”. Further, in data set [2] (setting [8]), the “toxicity, anemia” value stood at 21%; the “toxicity, fatigue” value worked out at 26%; the “toxicity, infusion reaction” value is 21%; the “toxicity, nausea” value is recorded as 13%. For the same molecule, in data set [2] (setting [9]), the “complete response (CR)” value is listed as 1 and the “partial responses (PRs)” value is 2. In addition, the direct cytotoxicity entry with tumor cells is reported as “not directly cytotoxic”. Besides, in the data set on monkey (monkey, in vivo), the clinical pathology changes entry was “non-dose-dependent clinical pathology changes seen and those were consistent with an immune response in monkeys to the human AVB-S6-500 protein”; the mortalities entry is recorded as “no mortalities”. Also, in the data set on monkey (once-weekly 30-minute IV infusion, 50, 100, 150 mg/kg), the no-observed-adverse-effect level (NOAEL) result is “at least 150 mg/kg/dose”. Also, in [3] (PDA1-1 models, combined with gemcitabine), the “metastatic tumor weight and number” value is reported as “Significant reductions”. Moreover, in data set [3] (combined with gemcitabine), the fibrosis entry was “substantially decreased” and the survival entry is “prolonged”. For the same molecule, the metastasis development result in data set [3] (monotherapy) is “decrease in metastasis development”. The “toxicity in pharmacology studies” value with aggressive human cancers [4] (mouse, in vivo) is “no toxicity”. In addition, the “antitumor efficacy compared with other anti-AXL small molecules in clinical development” value with aggressive human cancers [4] (nonclinical models) is “superior antitumor efficacy”. In the data set with GAS6, the “apparent affinity to GAS6” value was 93-324 femtomolar and the “higher affinity than wild-type (WT) AXL” value is given as “approximately 200 fold”. In addition, in data set [5] (doses above 5 mg/kg), the clearance result is recorded as “lower”, the half-life entry is recorded as “longer” and the volume of distribution result was “larger”. Besides, in [5] (doses below 5 mg/kg), the clearance result is “high” and the half-life entry is on record as “short”. Also, the “effect on tumor cells in vivo” value in the data set with aggressive human cancers [6] (dosing 4-7 days after tumor inoculation, small tumors established in the mouse) is reported as “regression of tumor cells”. The metastatic disease entry in the data set on aggressive human cancers [6] (preclinical models of aggressive human cancers) was “inhibiting metastatic disease”. Besides, the “patients with Grade 4 or 5 adverse effects” value in [7] (AVB-S6-500 related, N = 21) is given as “no patients”. Further, in data set [7] (N = 21), the “AEs Leading to AVB-S6-500 Treatment Discontinuation, events” value was “fatigue and sepsis”; the “AVB-S6-500-Related Deaths” value is “no AVB-S6-500 related deaths”. In [7] (patients (% of N = 21)), the “AEs Leading to AVB-S6-500 Treatment Discontinuation” value stood at 2, the “AEs of Special Interest (Infusion Related Reactions)” value is recorded as 3 and the “Grade 3 Adverse Effects Related to AVB-S6-500” value was 6. Also, the “AXL signaled invasion and migration” value in the data set with highly metastatic cells was “dramatically reducing AXL signaled invasion and migration”. In the data set on healthy volunteers (human, in vivo), the “maximum tolerated dose (MTD)” value was “not reached”. In the data set with healthy volunteers (in vivo), the “dose related AEs or SAEs” value is “no dose related AEs or SAEs”. Also, the tolerability result in the data set on healthy volunteers (single 1, 2.5, 5, 10 mg/kg, 5 mg/kg weekly for 4 weeks, IV over 60 minutes) is recorded as “well tolerated at all doses”.
